Experimental data from the nanobody polyreactivity screen of Harvey et al. (2022).

Test: yeast display, Sf9 membrane polyspecificity reagent, FACS + sequencing; frameworks hold sequencing errors
Procedure, shortened: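 Nanobodies from a synthetic yeast display library (Saccharomyces cerevisiae BJ5465), induced 36–48 hours with galactose, were stained 1 hour at 4 °C with 10% biotinylated, detergent-solubilized Sf9 membrane reagent, enriched on streptavidin microbeads, then FACS-sorted. Anti-HA (expression) and streptavidin (reagent binding) fluorescence set low and high (top ~1%) gates. Polyreactivity labels come from the gate of origin. Genes were colony-PCR amplified, MiSeq 2 × 250 sequenced and filtered by CDR length.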

| Sequence | polyreactivity (PSR sort gate) |
| --- | --- |
| QVQLVESGGGLVQAGGSLRLSCAASGSTFKAYAMGWYRQAPGKQRELVAAITKSGGRTYYADSVKGRFTISRDNAKNTVYLQMNSLKPEDTAVYYCAAVFRPDSSAYRYYYWGQGTQVTVSS | high polyreactivity |
| QVQLVESGGGLVQAGGSLRLSCAASGSTFKGNTMGWYRQAPGKERELVAAISWRGGSTYYADSVKGRFTISRDNAKNTVYLQMNSMKPEDTAVYYCAAKSHWWWRGYYYLGQGTQVTVSS | high polyreactivity |
| QVQLVESGGGLVQAGGSLRLSCAASGSTFKGYAMGWYRQAPGKERELVAAISSRTGSTYYADSVKGRFTISRDNAKNTVYLQMNSLKPEDTAVYYCAAPWFRDTRGYSLYDYWGQGTQVTVSS | high polyreactivity |
| QVQLVESGGGLVQAGGSLRLSCAASGSTFKINALGWYIQAPGKERELVALIRASGASTYYADSVKGRFTISRDNAKKTVYLRMNILKPEDTAVYYCAATTRGYKWVGRDYDYWGQGTQVTVSS | high polyreactivity |
| QVQLVESGGGLVQAGGSLRLSCAASGSTFKIYVMGWYRQAPGKERELVAAISWSGGRTFYADSVKGRFTISRDNAKNTVYLQMNSLKPEDTAVYYCAARWQRYRSGTGDYWGQGTQVTVSS | high polyreactivity |
| QVQLVESGGGLVQAGGSLRLSCAASGSTFKKNAMGWYRQAPGKERELVAAISGIGTRTSYADSVKGRFTISRDNAKNTVYLQMNSLKPEDTAVYYCAARYYGFPSTLKYDYWGQGTQVTVSS | high polyreactivity |
| QVQLVESGGGLVQAGGSLRLSCAASGSTFKKNAMGWYRQAPGKERELVAAISKRGGRTYYADSVKGRFTISRDNAKNTVYLQMNSLKPEDTAVYYCNAGQQHFDEEEYDYWGQGTQVTVSS | high polyreactivity |
| QVQLVESGGGLVQAGGSLRLSCAASGSTFKKYAIGWYRQAPGKERELVAAITWTGGSTYYADSVKGRFTISRDNAKNTVYLQMNSLKPEDTAVYYCAAYKTYAVKYYWGQGTQVTVSS | high polyreactivity |
| QVQLVESGGGLVQAGGSLRLSCAASGSTFKKYAMGWYRLAPGKERELVAAITGSGGRTYYADSVKGRFTISRDNAKNTVDLQMNSLKPEDTAVYYCAKLNNYGYDYWGQGTQVTVSS | high polyreactivity |
| QVQLVESGGGLVQAGGSLRLSCAASGSTFKLYVMGLYRPAPGKERELVAAIDWSGGSTYYADSVKGRFTISRDNAKNTVYLQMNSLTPEDTAVYYCAADSPNSWRMDYWGQGTQVTVSS | low polyreactivity |
| QVQLVESGGGLVQAGGSLRLSCAASGSTFKQYTMGWYRQATGKERELVAAINRGGTSTNYADSVKGRFTISRDNAKNTVYLQMNSLKPEDTAVYYCNAGYSWGRYYYWGQGTQVTVSS | low polyreactivity |
| QVQLVESGGGLVQAGGSLRLSCAASGSTFKRNAMGWYRQAPGKERELVAAISSSGGRTYYADSVKGRFTISRDNAKNTVYLQMNSLKPEDTAVYYCAAGIRTSAGYDYWGQGTQVTVSS | high polyreactivity |
| QVQLVESGGGLVQAGGSLRLSCAASGSTFKRNAMGWYRQAPGKERELVAAISWSGGSTYYADSVKGRFTISRDNAKNTVYLQMNSLKPEDTAVYYCNADHPFPQYEGGSWGQGTQVTVSS | low polyreactivity |
| QVQLVESGGGLVQAGGSLRLSCAASGSTFKRNAMGWYRQAPGKERELVATITRRGGSTYADSVKGRFTISRDNAKNTVYLQMNSLKPEDTAVYYCARDGFSAGMDYWGQGTQVTVSS | low polyreactivity |
| QVQLVESGGGLVQAGGSLRLSCAASGSTFKRNAMGWYRQAPGNERELVAAITDNTSTTFYADSVKGRFTISRDNAKNTVYLQMNSLKPEDTAVYYCAADHSGGSRYDYWGQGTQVTVSS | low polyreactivity |
| QVQLVESGGGLVQAGGSLRLSCAASGSTFKRNARGWYRQAPGKERELVASISKRGGSTYYADSVKGRFTISRDNAKNTVYLQMNSLIPEDTAVYYCAKTWQNGDRNTIGSVYAYDYWGQGTQVTVSS | high polyreactivity |
| QVQLVESGGGLVQAGGSLRLSCAASGSTFKRYAMGWYRQAPGKERELVAAITSGSSTYYADSVKGRFTISRDNAKNTVYLQMNSLKPEDTAVYYCAARRAGAKYYLYGYDYWGQGTQVTVSS | low polyreactivity |
| QVQLVESGGGLVQAGGSLRLSCAASGSTFKRYAMGWYRQAPGKERELVASISQRGGTTYYADSVKGRFTISRDNAKNTVYLQKNSLKPEDTAVYYCAKGFGWTRTIYDYWGQGTQVTVSS | high polyreactivity |
| QVQLVESGGGLVQAGGSLRLSCAASGSTFKSYAKGWYRQAPGKEREFVAAIRGNGARTYYADSVKGRITISRDNAKNTVYFQMNSLKPEDTAVYYCNAVRYSFSDSSVDYWGQGTQVTVSS | high polyreactivity |
| QVQLVESGGGLVQAGGSLRLSCAASGSTFKSYAMGWYRQAPGKERELVAAISYRGGSTYYADSVKGRFTISRDNAKNTVYLQMNSLKPEDTAVYYCAAVKLYSYYYWGQGTQVTVSS | high polyreactivity |
| QVQLVESGGGLVQAGGSLRLSCAASGSTFKSYAMGWYRQAPGKERELVAAITHRGSTYYADSVKGRFTISRDNAKNTVDLQMNSLKPEDTAVYYCNVRRIGNGRRVDYWGQGTQVTVSS | high polyreactivity |
| QVQLVESGGGLVQAGGSLRLSCAASGSTFKSYAMGWYRQAPGKERELVAAITRGGSTNYADSVKGRFTISRDNAKNTVYLQMNSLKPEDTAVYYCAKTYRYRTMDYWGQGTQVTVSS | low polyreactivity |

| Sequence | polyreactivity (PSR sort gate) |
| --- | --- |
| QVQLVESGGGLVQAGGSLRLSCAASGSTFKWNAMGWYRQAPGKERELVAAISKGSVNTYYADSVKGRFTISRDNAKNTVYLQMNSLKPEDTAVYYCAADRRYPALDYRGQGTQVTVSS | high polyreactivity |
| QVQLVESGGGLVQAGGSLRLSCAASGSTFKYYAMGWYRQAPGKERELVAAISYRGGRTYYADSVKGRFTISRDNAKNTVNLQMNSLKPEDTAVYYCAAVKPYYIQYQGSAGYDYWGQGTQVTVSS | high polyreactivity |
| QVQLVESGGGLVQAGGSLRLSCAASGSTFKYYAMGWYRQAPGKERELVASITRTGSSTYYADSVKGRFTISRDNAKNTVYLQMNSLKPEDTAVYFCNTGPHSVWWHYGYDYWGQGTQVTVSS | high polyreactivity |
| QVQLVESGGGLVQAGGSLRLSCAASGSTFKYYAMGWYSQAPGKERELVAAISKGATRTYYADSVKGRFTISRDTAKNTVYLQMNSLKPEDTAVYYCAADRLKFPGEYDYWGQGTQVTVSS | high polyreactivity |
| QVQLVESGGGLVQAGGSLRLSCAASGSTFLDNAMGWYRQAPGKETELVAAITQSGSSTYYADSVKGRFTISRDNAKNTVYLQMNSLKPEDTAVYYCAADVPNISFDYWGQGTQVTVSS | low polyreactivity |
| QVQLVESGGGLVQAGGSLRLSCAASGSTFLFYAMGWYRQAPGKEREFVAAITWSGGSTYYADSVKGRFTISRDNAKNTVYLQMNSLKPEDTAVYYCNGYYVPTTGREFYFAFYYWGQGTQVTVSS | low polyreactivity |
| QVQLVESGGGLVQAGGSLRLSCAASGSTFLFYTMGWYRQAPGKERELVAAINSGGSTNYADSVKGRFTISRDNAKNTVYLQMNSLKPEDTAVYYCNADRTYVYKYTYSFYYWGQGTQVTVSS | low polyreactivity |
| QVQLVESGGGLVQAGGSLRLSCAASGSTFLGNVMGWYRQAPGKERELVAAITSTGGNTYYADSVKGRFTISRDNAKNSVYLQMNSLKPEDTAVYYCAKKYVWTHNYWGQGTQVTVSS | low polyreactivity |
| QVQLVESGGGLVQAGGSLRLSCAASGSTFLIKAMGWYRQAPGKEREVVASIRYRGATTYADSVKGRFTISRDNAKNTVYLQLKSLKPEDTAVYYCAAVHWRYQYSLRYDYWGQGTQVTVSW | high polyreactivity |
| QVQLVESGGGLVQAGGSLRLSCAASGSTFLINVLGWYRQAPGKERELVARISWRAATTYYADSVKGRFTISRDNAKNTVYLPMYSLQPEDTAVYYCADDLYKRGFDYWGQGTQVTVSS | low polyreactivity |
| QVQLVESGGGLVQAGGSLRLSCAASGSTFLKYAMGWYKHAPWKERELVAAITYRGGTTYYADSVKGRFTISRDNAKNSVYFQMNSLKPVDTAVYYCNARRDYDMDWGQGTLVTVSS | high polyreactivity |
| QVQLVESGGGLVQAGGSLRLSCAASGSTFLKYAMVWYRQAPGKERELVAAITSDGTTYADSVKGRFTISRDNAKNTVYLQMNSLKPEDTAVYYCAKDYRHPTFDYWGQGTQVTVSS | low polyreactivity |
| QVQLVESGGGLVQAGGSLRLSCAASGSTFLKYDMGWYRQAPGKERELVAAISWDGGSTYYADSVKGRFTISRDNAKNTVYLQMNSLKPEDTAVYYCNADYDVYLTIWYYYGEFDYWGQGTQVTVSS | low polyreactivity |
| QVQLVESGGGLVQAGGSLRLSCAASGSTFLLNTMGWYRQAPGKERELVAVINSDDSTYYADSVKGRFTISRDNAKNTVYLQMNSLKPEDTAVYYCAAEPQYTRHMDSWGQGTQVTVSS | low polyreactivity |
| QVQLVESGGGLVQAGGSLRLSCAASGSTFLLYDMGWYRQAPGKERELVAAITWSGGSTYYADSVKGRFTISRDNAKNTVYLQMNSLKPEDTEVYYCAADSLGDRYYYWGQGTQVTVSS | low polyreactivity |
| QVQLVESGGGLVQAGGSLRLSCAASGSTFLNNAMGWYRQAPGKERELVATITSGGITNYADSVKGRFTISRDNEKNTVYLQMNSLKPEDTAVYYCNADTWGFTYYYWGQGTQVTVSS | low polyreactivity |
| QVQLVESGGGLVQAGGSLRLSCAASGSTFLNYAMGWYRQAPGKERELVAAISFSGGRTYYADSVKGRFTISRDIAKNTVYLQMNSLKPEDTAVYYCGAGGWRGHYYCGQGTQVTVSS | high polyreactivity |
| QVQLVESGGGLVQAGGSLRLSCAASGSTFLPYAMGWYRQAPGKERELVAAIDWNGGRTYYADSVKGRFTISRDNAKNTVYLQMNSLKPEDTAVYYCAKLGRAAQGNYYWGQGTQVTVSS | high polyreactivity |
| QVQLVESGGGLVQAGGSLRLSCAASGSTFLPYAMGWYRQAPGKERELVAAITWRTGSTYYADSVKGRFTISRDNAKNTVYLQMNSLKPEDTAVYYCNAKQRGKFDYWGQGTQVTVSS | low polyreactivity |
| QVQLVESGGGLVQAGGSLRLSCAASGSTFLRNAMGWYRQAPGKEWELVATISTGSGRTYYADSVKGRFTISRDNAKNTVYLQMHSLKPEDTAVYYCAASRTLRKHRYEYWGQGTQVTVSS | high polyreactivity |
| QVQLVESGGGLVQAGGSLRLSCAASGSTFLRNVMGWYRQAPGKERELVAAISSRGGSTHYADSVQGRFTISRDNAKHTVYLQMNSLKPEDTAVYYCNAERTAAQYVRAAYDYWGLGTQVTVSS | low polyreactivity |
